In PMC5025603:

Substrate: CC(O)C(=O)O
Test: cells, lysate or membranes
Conditions: labelled compound, KH2PO4 pH 5.0, room temperature, 10 s uptake, strain printed GLS in table, GS in text and methods, host background uptake not subtracted

B1: PAS (putative lactate transporter of P. pastoris) (Komagataella phaffii GS115) (protein)
chain: MSHSIHSAAHKSVMTDIEKQHDRIHPHDHPVTPLEKPDLSAKSIKHYFATRLSTLVPKAEDFKDKRYIFNPFMVLRELTPKNWNFFMCGFAAWTWDAVDFFSVSLNVTNIAKDLNVTTKDVTWGLTLVLMLRSVGAISFGLWADRKGRKWPFIFNMILLIVLQIGLGFVNTYKQFLGVRAVFGIAMGAVFGNASSLALDDCPPRAKGIVSGIFQQGYAFGYLLVVVFQRAITDNASKSWRALFWFSAGPPVLIILWRLVLPETDAFIAQQNLRMETSDGQTASQQFVKQGKDALRVYWLMLIYMIIMMAAFNFSSHSSQDLYPTLLTVQYEFGKDRSTVTNVVANLGAIVGGIFWGHMSNFIGRRLAVLLCCIVGGAFIYPWAFINGSGINAGAFFLQFAVQGGWGVCPVHLAEMSPPHFRAFVTGTTYQLGNLASSGSSTILADIGERFPIYDENGVRKEGVYDYAKVMAIFMGAVFAFLFIVMLLGPERRGASNLDDLQDYIDDWEQKDLDNKKGIETEFIEDVQLMEAVSNEDLSEKGNEKVEAFEGNK
Km: 157.40 ± 25.46 µM
Vmax: 452 µmol/min/mg
